Data reported in patent US20020151680A1 (VEGENICS, published 2002).

T1: VEGFR-3-Fc (UniProt P35916 25-329)
T1 construct: domain: first three Ig domains; used as conditioned supernatant of 293T cells; also called VEGFR-3-Fc fusion protein; not shown: Fc fragment of the pIg vector
T1 sequence (looked up): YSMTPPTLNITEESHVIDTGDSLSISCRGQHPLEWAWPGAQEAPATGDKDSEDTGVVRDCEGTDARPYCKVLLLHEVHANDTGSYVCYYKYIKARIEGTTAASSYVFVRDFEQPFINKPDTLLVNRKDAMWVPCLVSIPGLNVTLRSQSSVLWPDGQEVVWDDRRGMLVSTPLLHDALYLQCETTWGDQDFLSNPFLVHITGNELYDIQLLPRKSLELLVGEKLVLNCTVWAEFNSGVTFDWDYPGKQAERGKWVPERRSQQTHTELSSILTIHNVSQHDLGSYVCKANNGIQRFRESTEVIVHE


Key:
Assay in all cases: 35S IP, receptor-Fc
[1] = target: T2, VEGFR-1-Fc (UniProt P17948 27-331)
T2 construct: domain: first three Ig domains; expressed in Drosophila S2 cells, purified on Protein A sepharose; also called VEGFR-1-Fc fusion protein; not shown: Fc fragment from the Signal-pIgPlus vector
Description: (§1) The binding assay procedure was identical to the immunoprecipitation using pentahistidine antibody described in Example 2, apart from the composition of the immunoprecipitation (IP) mixes. The IP mixes used for the receptor binding analysis were as follows: For VEGFR- 1 binding assays, the IP mix was phosphate buffered saline (PBS) containing 1.5% BSA, 0.06% Tween 20, 3 μg/ml heparin and 400 ng/ml VEGFR-1 -Fc fusion protein (100 μl of this IP mix was added to 200 μl of sample supernatant); for VEGFR-2 binding assays, the IP mix was 82% conditioned cell supernatant from 293T cells transiently expressing VEGFR-2-Fc fusion protein in mixture with 18% of a PBS solution that contained 5% BSA, 0.2% Tween 20, and 10 μg/ml heparin (250 μl of IP mix was added to 200 μl of sample supernatant); and for VEGFR-3 binding assays, the IP mix was 82% conditioned cell supernatant from 293T cells transiently expressing VEGFR-3-Fc fusion protein, 18% of PBS containing 5% BSA, 0.2% Tween 20, and 10 μg/ml heparin (250 μl of IP mix was added to 200 μl of sample supernatant).

[2] = target: T3, VEGFR-2-Fc (UniProt P35968 24-326)
T3 construct: domain: first 3 Ig domains; used as conditioned supernatant of 293T cells; also called VEGFR-2-Fc fusion protein; not shown: Fc fragment of the pIg vector
Description: as §1

[3] = target: T1, VEGFR-3-Fc
Description: as §1

T3 sequence (P35968 24-326): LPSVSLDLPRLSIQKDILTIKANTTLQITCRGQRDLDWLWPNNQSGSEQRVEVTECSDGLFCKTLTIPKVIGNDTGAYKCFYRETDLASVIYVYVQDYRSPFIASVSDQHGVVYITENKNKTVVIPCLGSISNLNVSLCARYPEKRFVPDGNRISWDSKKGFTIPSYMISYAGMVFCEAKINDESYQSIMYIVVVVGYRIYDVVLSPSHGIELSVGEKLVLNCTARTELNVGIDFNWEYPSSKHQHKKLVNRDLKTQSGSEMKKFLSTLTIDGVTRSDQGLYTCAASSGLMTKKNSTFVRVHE
T2 sequence (P17948 27-331): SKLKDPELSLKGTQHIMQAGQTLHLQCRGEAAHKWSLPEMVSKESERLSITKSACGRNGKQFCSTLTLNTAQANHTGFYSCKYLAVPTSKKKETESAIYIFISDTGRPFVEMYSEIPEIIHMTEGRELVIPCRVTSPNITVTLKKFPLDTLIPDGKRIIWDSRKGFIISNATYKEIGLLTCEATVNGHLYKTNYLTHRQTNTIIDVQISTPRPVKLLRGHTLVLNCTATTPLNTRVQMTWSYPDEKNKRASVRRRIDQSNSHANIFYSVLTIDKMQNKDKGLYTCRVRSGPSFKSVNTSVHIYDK

| Binder | binding result [1] | binding result [2] | binding result [3] |
| --- | --- | --- | --- |
| 31-11 (ligand) GQNHHEVVKSIDNEWRKTQCMPIETLVDIFQEYPDEIEYIFKPSCVPLMRCGGCCNSEGLQCVPTEESNITMQIMRITVPLSQGPKPVTISFLQHNKCECRPKKDLVFEQKLISEEDLNSAVDHHHHHH | no binding | no binding | no binding |
| 12-16 (ligand) GQNHHEVVKFMDVYQRSYCHPIETLVDIFQEFGVATNTFFKPPCVSVYRCGLLQ | no binding | no binding | – |

Further lines, results first:

| binding result [1] | binding result [2] | binding result [3] | Binder |
| --- | --- | --- | --- |
| no binding | no binding | no binding | 31-6 (ligand) GQNHHEVVKSIDNEWRKTQCMPIETLVDIFQEYPDEIEYIFKPSCVPLMRCGGCCNDEGLECMNTSTSYLSKTLFEIKPHQGQHIGEMSFANHTSCRCMSKLDLVFEQKLISEEDLNSAVDHHHHHH |
| no binding | no binding | no binding | 31-1 (ligand) GQNHHEVVKSIDNEWRKTQCMPIETLVDIFQEYPDEIEYIFKPSCVPLMRCGGCCNDEGLECVPTEESNITMQIMRIKPHQGQHIGEMSFLQHNKCECRPKKDLVFEQKLISEEDLNSAVDHHHHHH |
